Laboratory results as given in US20220025021A1 (BETH ISRAEL DEACONESS MEDICAL CENTER, published 2022).
Residue numbers refer to the chain shown, from its start.

Legend:
Experiment in all cases: cell-based or functional assay
[1] = molecular target: HIV-1 envelope glycoprotein of pseudovirus 0260.v5.c36 (HIV-1)
[2] = molecular target: HIV-1 envelope glycoprotein of pseudovirus RHPA4259.7 (HIV-1)
[3] = molecular target: HIV-1 envelope glycoprotein of pseudovirus CNE52 (HIV-1)
[4] = molecular target: HIV-1 envelope glycoprotein of pseudovirus BB1012-11.TC21 (HIV-1)
[5] = molecular target: HIV-1 envelope glycoprotein of pseudovirus SC422661.8 (HIV-1)
[6] = molecular target: HIV-1 envelope glycoprotein of pseudovirus DU172.17 (HIV-1)

B1: MS-101 (antibody)
VH: not shown
VL: DFVLTQSPHSLSVTPGEPASISCKSSHSLIHGDRNNYLAWYVQKPGRSPQLLIYLASSRASGVPDRFSGSGSDKDFTLKISRVEAEDVGTYYCMQGRESPWTFGQGTKVDIKRTVAAPSVFIFPPSDEQLKSGTASVVCLLNNFYPREAKVQWKVDNALQSGNSQESVTEQDSKDSTYSLSSTLTLSKADYEKHKVYACEVTHQGLSSPVTKSFNRGEC
- IC50 (neutralization in TZM.bl cells) [1]: 0.025 µg/mL
- IC80 (neutralization in TZM.bl cells) [1]: 0.069 µg/mL
- IC50 (neutralization in TZM.bl cells) [2]: 0.227 µg/mL
- IC80 (neutralization in TZM.bl cells) [2]: 0.816 µg/mL
- IC50 (neutralization in TZM.bl cells) [3]: 0.145 µg/mL
- IC80 (neutralization in TZM.bl cells) [3]: 1.23 µg/mL
- IC50 (neutralization in TZM.bl cells) [4]: 0.037 µg/mL
- IC80 (neutralization in TZM.bl cells) [4]: 0.121 µg/mL
- IC50 (neutralization in TZM.bl cells) [5]: 0.251 µg/mL
- IC80 (neutralization in TZM.bl cells) [5]: 1.88 µg/mL
- IC50 (neutralization in TZM.bl cells) [6]: 2.41 µg/mL
- IC80 (neutralization in TZM.bl cells) [6]: 6.88 µg/mL

B2: MS-102 (antibody)
VH: not shown
VL: B1 VL with P18S, D73G
- IC50 (neutralization in TZM.bl cells) [1]: 0.019 µg/mL
- IC80 (neutralization in TZM.bl cells) [1]: 0.053 µg/mL
- IC50 (neutralization in TZM.bl cells) [2]: 0.178 µg/mL
- IC80 (neutralization in TZM.bl cells) [2]: 0.649 µg/mL
- IC50 (neutralization in TZM.bl cells) [3]: 0.211 µg/mL
- IC80 (neutralization in TZM.bl cells) [3]: 1.87 µg/mL
- IC50 (neutralization in TZM.bl cells) [4]: 0.031 µg/mL
- IC80 (neutralization in TZM.bl cells) [4]: 0.1 µg/mL
- IC50 (neutralization in TZM.bl cells) [5]: 0.17 µg/mL
- IC80 (neutralization in TZM.bl cells) [5]: 1.21 µg/mL
- IC50 (neutralization in TZM.bl cells) [6]: 1.16 µg/mL
- IC80 (neutralization in TZM.bl cells) [6]: 5.91 µg/mL

B3: MS-103 (antibody)
VH: not shown
VL: B1 VL with F2I, H9L, A85T
- IC50 (neutralization in TZM.bl cells) [1]: 0.03 µg/mL
- IC80 (neutralization in TZM.bl cells) [1]: 0.104 µg/mL
- IC50 (neutralization in TZM.bl cells) [2]: 0.29 µg/mL
- IC80 (neutralization in TZM.bl cells) [2]: 1.33 µg/mL
- IC50 (neutralization in TZM.bl cells) [3]: 0.432 µg/mL
- IC80 (neutralization in TZM.bl cells) [3]: 4.18 µg/mL
- IC50 (neutralization in TZM.bl cells) [4]: 0.046 µg/mL
- IC80 (neutralization in TZM.bl cells) [4]: 0.155 µg/mL
- IC50 (neutralization in TZM.bl cells) [5]: 0.408 µg/mL
- IC80 (neutralization in TZM.bl cells) [5]: 1.99 µg/mL
- IC50 (neutralization in TZM.bl cells) [6]: 2.68 µg/mL
- IC80 (neutralization in TZM.bl cells) [6]: 10.2 µg/mL

B4: MS-107 (antibody)
VH: not shown
VL: B1 VL with F2I
- IC50 (neutralization in TZM.bl cells) [1]: 0.034 µg/mL
- IC80 (neutralization in TZM.bl cells) [1]: 0.109 µg/mL
- IC50 (neutralization in TZM.bl cells) [2]: 0.219 µg/mL
- IC80 (neutralization in TZM.bl cells) [2]: 0.949 µg/mL
- IC50 (neutralization in TZM.bl cells) [3]: 0.389 µg/mL
- IC80 (neutralization in TZM.bl cells) [3]: 5.29 µg/mL
- IC50 (neutralization in TZM.bl cells) [4]: 0.035 µg/mL
- IC80 (neutralization in TZM.bl cells) [4]: 0.111 µg/mL
- IC50 (neutralization in TZM.bl cells) [5]: 0.362 µg/mL
- IC80 (neutralization in TZM.bl cells) [5]: 2.07 µg/mL
- IC50 (neutralization in TZM.bl cells) [6]: 2.58 µg/mL
- IC80 (neutralization in TZM.bl cells) [6]: 13.9 µg/mL

B5: MS-108 (antibody)
VH: not shown
VL: B1 VL with F2I, P18S, D73G
- IC50 (neutralization in TZM.bl cells) [1]: 0.028 µg/mL
- IC80 (neutralization in TZM.bl cells) [1]: 0.088 µg/mL
- IC50 (neutralization in TZM.bl cells) [2]: 0.178 µg/mL
- IC80 (neutralization in TZM.bl cells) [2]: 1.1 µg/mL
- IC50 (neutralization in TZM.bl cells) [3]: 0.265 µg/mL
- IC80 (neutralization in TZM.bl cells) [3]: 3.5 µg/mL
- IC50 (neutralization in TZM.bl cells) [4]: 0.027 µg/mL
- IC80 (neutralization in TZM.bl cells) [4]: 0.11 µg/mL
- IC50 (neutralization in TZM.bl cells) [5]: 0.148 µg/mL
- IC80 (neutralization in TZM.bl cells) [5]: 1.25 µg/mL
- IC50 (neutralization in TZM.bl cells) [6]: 1.71 µg/mL
- IC80 (neutralization in TZM.bl cells) [6]: 13.6 µg/mL

B6: MS-106 (antibody)
VH: not shown
VL: B1 VL with F2I, D73G, A85T
- IC50 (neutralization in TZM.bl cells) [1]: 0.018 µg/mL
- IC80 (neutralization in TZM.bl cells) [1]: 0.066 µg/mL
- IC50 (neutralization in TZM.bl cells) [2]: 0.143 µg/mL
- IC80 (neutralization in TZM.bl cells) [2]: 0.72 µg/mL
- IC50 (neutralization in TZM.bl cells) [3]: 0.42 µg/mL
- IC80 (neutralization in TZM.bl cells) [3]: 4.31 µg/mL
- IC50 (neutralization in TZM.bl cells) [4]: 0.031 µg/mL
- IC80 (neutralization in TZM.bl cells) [4]: 0.132 µg/mL
- IC50 (neutralization in TZM.bl cells) [5]: 0.201 µg/mL
- IC80 (neutralization in TZM.bl cells) [5]: 1.07 µg/mL
- IC50 (neutralization in TZM.bl cells) [6]: 1.49 µg/mL
- IC80 (neutralization in TZM.bl cells) [6]: 8.04 µg/mL

B7: MS-109 (antibody)
VH: not shown
VL: B1 VL with H9L, D73G, A85T
- IC50 (neutralization in TZM.bl cells) [1]: 0.027 µg/mL
- IC80 (neutralization in TZM.bl cells) [1]: 0.089 µg/mL
- IC50 (neutralization in TZM.bl cells) [2]: 0.182 µg/mL
- IC80 (neutralization in TZM.bl cells) [2]: 0.794 µg/mL
- IC50 (neutralization in TZM.bl cells) [3]: 0.206 µg/mL
- IC80 (neutralization in TZM.bl cells) [3]: 1.95 µg/mL
- IC50 (neutralization in TZM.bl cells) [4]: 0.021 µg/mL
- IC80 (neutralization in TZM.bl cells) [4]: 0.087 µg/mL
- IC50 (neutralization in TZM.bl cells) [5]: 0.233 µg/mL
- IC80 (neutralization in TZM.bl cells) [5]: 1.75 µg/mL
- IC50 (neutralization in TZM.bl cells) [6]: 1.14 µg/mL
- IC80 (neutralization in TZM.bl cells) [6]: 8.76 µg/mL

B8: MS-105 (antibody)
VH: not shown
VL: B1 VL with F2I, H9L, P18S
- IC50 (neutralization in TZM.bl cells) [1]: 0.032 µg/mL
- IC80 (neutralization in TZM.bl cells) [1]: 0.11 µg/mL
- IC50 (neutralization in TZM.bl cells) [2]: 0.27 µg/mL
- IC80 (neutralization in TZM.bl cells) [2]: 1.25 µg/mL
- IC50 (neutralization in TZM.bl cells) [3]: 0.441 µg/mL
- IC80 (neutralization in TZM.bl cells) [3]: 5.04 µg/mL
- IC50 (neutralization in TZM.bl cells) [4]: 0.038 µg/mL
- IC80 (neutralization in TZM.bl cells) [4]: 0.124 µg/mL
- IC50 (neutralization in TZM.bl cells) [5]: 0.44 µg/mL
- IC80 (neutralization in TZM.bl cells) [5]: 3.51 µg/mL
- IC50 (neutralization in TZM.bl cells) [6]: 3.06 µg/mL
- IC80 (neutralization in TZM.bl cells) [6]: 11.5 µg/mL

B9: MS-104 (antibody)
VH: not shown
VL: B1 VL with F2I, H9L, P18S, D73G, A85T
- IC50 (neutralization in TZM.bl cells) [1]: 0.024 µg/mL
- IC80 (neutralization in TZM.bl cells) [1]: 0.084 µg/mL
- IC50 (neutralization in TZM.bl cells) [2]: 0.227 µg/mL
- IC80 (neutralization in TZM.bl cells) [2]: 1.02 µg/mL
- IC50 (neutralization in TZM.bl cells) [3]: 0.509 µg/mL
- IC80 (neutralization in TZM.bl cells) [3]: 6.48 µg/mL
- IC50 (neutralization in TZM.bl cells) [4]: 0.032 µg/mL
- IC80 (neutralization in TZM.bl cells) [4]: 0.137 µg/mL
- IC50 (neutralization in TZM.bl cells) [5]: 0.277 µg/mL
- IC80 (neutralization in TZM.bl cells) [5]: 1.52 µg/mL
- IC50 (neutralization in TZM.bl cells) [6]: 2.58 µg/mL
- IC80 (neutralization in TZM.bl cells) [6]: 9.41 µg/mL
